Data as given in US20230220057A1 (STAIDSON BEIJING BIOPHARMACEUTICALS, published 2023).

Target: recombinantly produced human-NGF (human, UniProt P01138 122-241, limits assumed)
Assay: ELISA, human NGF coated, IgG titrated
Protocol: NGF binding ELISA assay: In human NGF binding ELISA, Corning 3366 high binding 96 well plates were coated with recombinantly produced human-NGF at 1 μg per ml, 50 μl/well in 1×PBS, and incubated overnight at 4° C. The plates were washed and blocked with 250 μl of 1×PBS/1% BSA at least 30 minutes at room temperature. 50 μl of culture supernatants, after 1:1 diluted by the PBS/BSA diluent, or the purified antibodies diluted serially from a certain concentration with the diluent, were added per well, and incubated at 37° C. for 2 hours. After washing, a secondary antibody, goat anti-human IgG Fc AP (Southern biotech) was applied at a dilution of 1:3000 in PBS/BSA. The plates were incubated for 1 hour at RT and washed. After adding the PNPP substrate, the ODs at 405 nm were read.
NGF binding ELISA assay: NGF binding ELISA assay was performed as described in Example 1.

Chain of recombinantly produced human-NGF (P01138 122-241 limits assumed): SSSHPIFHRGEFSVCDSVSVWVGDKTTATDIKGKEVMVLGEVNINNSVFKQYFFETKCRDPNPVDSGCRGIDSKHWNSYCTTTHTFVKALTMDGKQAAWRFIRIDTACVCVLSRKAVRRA

Row | EC50 [ng/mL] | Molecule
1 | 0.0221 | Ab43 (antibody, human IgG1, V domains shown) VH: EVQLVQSGAEVKKPGESLKISCKGSGYSFITYWISWVRQMPGKGLEWMGAIDPSDSDARYSPSFQGQVTISADKSISTAYLQWSSLKASDTAMYYCAKSDPGYSGYSLLYGFDSWGQGTLVTVSS VL: DVVMTQSPLSLPVTLGQPASISCRSSQSLVQRNGNTYLSWFQQRPGQSPRLLIYQVSNRYSGVPDRFSGSGSGTDFTLKISRVEAEDVGVYYCGQGAHLPLTFGQGTKVEIK
2 | 0.0221 | Ab51 (antibody, human IgG1, V domains shown) VH: EVQLVQSGAEVKKPGESLKISCKISGYSFITYWISWVRQMPGKGLEWMGAIDPSDSDARYSPSFQGQVTISADKSISTAYLQWSSLKASDTAMYYCAKSDPGYSGYSLLYGFDSWGQGTLVTVSS VL: DIVMTQTPLSSPVTLGQPASISCRSSQSLVQRNGNTYLSWLQQRPGQPPRLLIYQVSNRYSGVPDRFSGSGAGTDFTLKISRVEAEDVGVYYCGQGAHLPLTFGQGTKVEIK
3 | 0.0482 | Ab53 (antibody, human IgG1, V domains shown) VH: EVQLVQSGAEVKKPGESLKISCKISGYSFITYWISWVRQMPGKGLEWMGAIDPSDSDARYSPSFQGQVTISADKSISTAYLQWSSLKASDTAMYYCAKSDPGYSGYSLLYGFDSWGQGTLVTVSS VL: DVVMTQSPLSLPVTLGQPASISCRSSQSLVQRNGNTYLSWFQQRPGQSPRLLIYQVSNRYSGVPDRFSGSGSGTDFTLKISRVEAEDVGVYYCGQGAHLPLTFGQGTKVEIK
4 | 0.00629 | Ab50 (antibody, human IgG1, V domains shown) VH: EVQLVQSGAEVKKPGESLKISCKGSGYSFITYWISWVRQMPGKGLEWMGAIDPSDSDARYSPSFQGQVTISADKSISTAYLQWSSLKASDTAMYYCAKSDPGYSGYSLLYGFDSWGQGTLVTVSS VL: DIVMTQSPLSLPVTLGQPASISCRSSQSLVQRNGNTYLSWFQQRPGQPPRLLIYQVSNRYSGVPDRFSGSGSGTDFTLKISRVEAEDVGVYYCGQGAHLPLTFGQGTKVEIK

Target: T1, human NGF-Fc protein (human, UniProt P01138 122-241, limits assumed)
T1 construct: not shown: human IgG1 Fc or IgG4 Fc
Assay: BLI (Octet Red), human NGF-Fc captured on anti-human Fc sensors, Fab in solution
Protocol: FortéBio BioLayer Interferometry (BLI) technology was chosen as the method for affinity determination by using Octet Red system. NGF is a homodimer protein in its nature form. […] For the purpose of affinity measurement, monovalent Fab fragments of IgG were prepared using Fab preparation kit (Pierce).
After purification, the Fab concentration was determined by OD280 according to the extinction coefficient calculated based on its sequence. […] For each assay, an array of Fab concentrations from about 50 nM to less than 1 nM in kinetic buffer (PALL) were tested by NGF-Fc sensors with the association time of 300 seconds and dissociation time of 1200 seconds. The kinetic data were analyzed using program Data Analysis HT 10.0 according to the manual. All the tests were repeated at least twice in independent assays.

T1 sequence (P01138 122-241 limits assumed): as the sequence (P01138 122-241 limits assumed) above

Row | Molecule | Kd [nM] | koff [s⁻¹] | kon [M⁻¹ s⁻¹]
5 | Tanezumab Fab | 0.169 | 6.14e-05 | 364000
6 | Ab6 Fab (Fab, V domains shown) VH: EVQLVQSGAEVKKPGATVKISCKVSGYTFITYWISWVQQAPGKGLEWMGAIDPSDSDARYSPSFQGRVTITADTSTDTAYMELSSLRSEDTAVYYCAKSDPGYSGYSLLYGFDSWGQGTLVTVSS VL: DVVMTQSPLSLPVTLGQPASISCRSSQSLVQRNGNTYLSWFQQRPGQPPRLLIYQVSNRYSGVPDRFSGSGSGTDFTLKISRVEAEDVGVYYCGQGAHLPLTFGQGTKVEIK | 0.866 | 6.33e-05 | 73100
7 | Ab44 Fab (Fab, V domains shown) VH: EVQLVQSGAEVKKPGESLKISCKGSGYSFITYWISWVRQMPGKGLEWMGAIDPSDSDARYSPSFQGQVTISADKSISTAYLQWSSLKASDTAMYYCAKSDPGYSGYSLLYGFDSWGQGTLVTVSS VL: DVVMTQSPLSLPVTLGQPASISCRSSQSLVQRNGNTYLSWYQQRPGQSPRLLIYQVSNRYSGVPDRFSGSGSGTDFTLKISRVEAEDVGVYYCGQGAHLPLTFGQGTKVEIK | 0.704 | 5.9e-05 | 83800
8 | Ab54 Fab (Fab, V domains shown) VH: EVQLVQSGAEVKKPGESLKISCKISGYSFITYWISWVRQMPGKGLEWMGAIDPSDSDARYSPSFQGQVTISADKSISTAYLQWSSLKASDTAMYYCAKSDPGYSGYSLLYGFDSWGQGTLVTVSS VL: DVVMTQSPLSLPVTLGQPASISCRSSQSLVQRNGNTYLSWYQQRPGQSPRLLIYQVSNRYSGVPDRFSGSGSGTDFTLKISRVEAEDVGVYYCGQGAHLPLTFGQGTKVEIK | 0.148 | 4.43e-05 | 300000
9 | Ab4 Fab (Fab, V domains shown) VH: EVQLVQSGAEVKKPGATVKISCKVSGYTFITYWISWVQQAPGKGLEWMGAIDPSDSDARYSPSFQGRVTITADTSTDTAYMELSSLRSEDTAVYYCAKSDPGYSGYSLLYGFDSWGQGTLVTVSS VL: DVVMTQSPLSLPVTLGQPASISCRSSQSLVQRNGNTYLSWYQQRPGQSPRLLIYQVSNRYSGVPDRFSGSGSGTDFTLKISRVEAEDVGVYYCGQGAHLPLTFGQGTKVEIK | 0.0746 | 2.99e-05 | 401000
10 | Ab61 Fab (Fab, V domains shown) VH: EVQLVQSGAEVKKPGATVKISCKVSGYTFITYWISWVQQAPGKGLEWMGAIDPSDSDARYSPSFQGRVTITADTSTDTAYMELSSLRSEDTAVYYCAKSDPGYSGYSLLYGFDSWGQGTLVTVSS VL: DVVMTQSPLSLPVTLGQPASISCRSSQSLVQRNANTYLSWYQQRPGQSPRLLIYQVSNRYSGVPDRFSGSGSGTDFTLKISRVEAEDVGVYYCGQGAHLPLTFGQGTKVEIK | 0.139 | 5.13e-05 | 370000

The remaining lines, values ahead:

Row | Kd [nM] | koff [s⁻¹] | kon [M⁻¹ s⁻¹] | Molecule
11 | – | 7.48e-05 | – | Ab10 Fab (Fab, V domains shown) VH: EVQLVQSGAEVKKPGATVKISCKVSGYTFITYWISWVQQAPGKGLEWMGAIDPSDSDARYSPSFQGRVTITADTSTDTAYMELSSLRSEDTAVYYCAKSDPGYSGYSLLYGFDSWGQGTLVTVSS VL: DIVMTQSPLSLPVTLGQPASISCRSSQSLVQRNGNTYLSWFQQRPGQPPRLLIYQVSNRYSGVPDRFSGSGSGTDFTLKISRVEAEDVGVYYCGQGAHLPLTFGQGTKVEIK
12 | 3.25 | 5.27e-05 | 16200 | Ab37 Fab (Fab, V domains shown) VH: EVQLVQSGAEVKKPGATVKISCKVSGYTFITYWISWVQQAPGKGLEWMGAIDPSDSDARYSPSFQGRVTITADKSTDTAYMELSSLRSEDTAVYYCAKSDPGYSGYSLLYGFDSWGQGTLVTVSS VL: DIVMTQSPLSLPVTLGQPASISCRSSQSLVQRNGNTYLSWFQQRPGQSPRLLIYQVSNRYSGVPDRFSGSGSGTDFTLKISRVEAEDVGVYYCGQGAHLPLTFGQGTKVEIK
13 | 1.37 | 7.11e-05 | 51700 | Ab16 Fab (Fab, V domains shown) VH: EVQLVQSGAEVKKPGATVKISCKVSGYSFITYWISWVQQAPGKGLEWMGAIDPSDSDARYSPSFQGRVTITADTSTDTAYMELSSLRSEDTAVYYCAKSDPGYSGYSLLYGFDSWGQGTLVTVSS VL: DVVMTQSPLSLPVTLGQPASISCRSSQSLVQRNGNTYLSWFQQRPGQPPRLLIYQVSNRYSGVPDRFSGSGSGTDFTLKISRVEAEDVGVYYCGQGAHLPLTFGQGTKVEIK
14 | 3.48 | 0.000142 | 40700 | Ab47 Fab (Fab, V domains shown) VH: EVQLVQSGAEVKKPGESLKISCKGSGYSFITYWISWVRQMPGKGLEWMGAIDPSDSDARYSPSFQGQVTISADKSISTAYLQWSSLKASDTAMYYCAKSDPGYSGYSLLYGFDSWGQGTLVTVSS VL: DIVMTQSPLSLPVTLGQPASISCRSSQSLVQRNGNTYLSWFQQRPGQSPRLLIYQVSNRYSGVPDRFSGSGSGTDFTLKISRVEAEDVGVYYCGQGAHLPLTFGQGTKVEIK
15 | 0.258 | 7.35e-05 | 285000 | Ab36 Fab (Fab, V domains shown) VH: EVQLVQSGAEVKKPGATVKISCKVSGYTFITYWISWVQQAPGKGLEWMGAIDPSDSDARYSPSFQGRVTITADKSTDTAYMELSSLRSEDTAVYYCAKSDPGYSGYSLLYGFDSWGQGTLVTVSS VL: DVVMTQSPLSLPVTLGQPASISCRSSQSLVQRNGNTYLSWFQQRPGQPPRLLIYQVSNRYSGVPDRFSGSGSGTDFTLKISRVEAEDVGVYYCGQGAHLPLTFGQGTKVEIK
16 | 2.89 | 0.000107 | 37100 | Ab46 Fab (Fab, V domains shown) VH: EVQLVQSGAEVKKPGESLKISCKGSGYSFITYWISWVRQMPGKGLEWMGAIDPSDSDARYSPSFQGQVTISADKSISTAYLQWSSLKASDTAMYYCAKSDPGYSGYSLLYGFDSWGQGTLVTVSS VL: DVVMTQSPLSLPVTLGQPASISCRSSQSLVQRNGNTYLSWFQQRPGQPPRLLIYQVSNRYSGVPDRFSGSGSGTDFTLKISRVEAEDVGVYYCGQGAHLPLTFGQGTKVEIK
